# Experimental data from the DeepSol protein solubility set.
# Assay: soluble on expression in E. coli; label from the status in PepcDB or PDB records
row,Sequence,soluble on expression in E. coli
1,MGSDKIHHHHHHMSSLQILQGTFRLSDTKTLQLPQLTLNAGDSWAFVGSNGSGKSALARALAGELPLLKGERQSQFSHITRLSFEQLQKLVSDEWQRNNTDMLGPGEDDTGRTTAEIIQDEVKDAPRCMQLAQQFGITALLDRRFKYLSTGETRKTLLCQALMSEPDLLILDEPFDGLDVASRQQLAERLASLHQSGITLVLVLNRFDEIPEFVQFAGVLADCTLAETGAKEELLQQALVAQLAHSEQLEGVQLPEPDEPSARHALPANEPRIVLNNGVVSYNDRPILNNLSWQVNPGEHWQIVGPNGAGKSTLLSLVTGDHPQGYSNDLTLFGRRRGSGETIWDIKKHIGYVSSSLHLDYRVSTTVRNVILSGYFDSIGIYQAVSDRQQKLVQQWLDILGIDKRTADAPFHSLSWGQQRLALIVRALVKHPTLLILDEPLQGLDPLNRQLIRRFVDVLISEGETQLLFVSHHAEDAPACITHRLEFVPDGGLYRYVLTKIY,not soluble
2,MGSDKIHHHHHHMSSVSLQDFDAERIGLFHEDIKRKFDELKSKNLKLDLTRGKPSSEQLDFADELLALPGKGDFKAADGTDVRNYGGLDGIVDIRQIWADLLGVPVEQVLAGDASSLNIMFDVISWSYIFGNNDSVQPWSKEETVKWICPVPGYDRHFSITERFGFEMISVPMNEDGPDMDAVEELVKNPQVKGMWVVPVFSNPTGFTVTEDVAKRLSAMETAAPDFRVVWDNAYAVHTLTDEFPEVIDIVGLGEAAGNPNRFWAFTSTSKITLAGAGVSFFLTSAENRKWYTGHAGIRGIGPNKVNQLAHARYFGDAEGVRAVMRKHAASLAPKFNKVLEILDSRLAEYGVAQWTVPAGGYFISLDVVPGTASRVAELAKEAGIALTGAGSSYPLRQDPENKNLRLAPSLPPVEELEVAMDGVATCVLLAAAEHYAN,not soluble
3,MGSDKIHHHHHHMSSYVVSQEDVKNFLNLPSMNDQEGISFAYATDPDALAKLIPAPLKLVAPVVCGYVVHMGKPSFGGPYLEQTLFALVSYKDKMMGSYPLTLLLHGPGAEAGLVAGREGAGIPKKLADHIELRRNDNSASATVERHGKTLLSVDWEAGDVNDPSILQTFGSQFALNKESEMNSFFFTHDLVQDKQGANHFENVELVATQMKSLADRVEPGKLSIQLASTEDDPFGELPVLKPLGAMWYHFATSTMFNTLHLEQVDADKTAPYLITGRYDRSMMNPLATTYII,not soluble
4,MGSDKIHHHHHHMSTDFKKRNVFFSPPDMTETETRLVVEAIMSGWITTGPKTKEFEKKISAYVHTDKTVCLNSATAAMELALRLIGVGPEDEVIVPAYTYTASASVTQHVGCHLVMVDSNEENQQMDLQKLAEAITERTKVIVPVDLGGVVCEYDKILEILEQKKGLFRPTNELQKKIGRVIISSDCAHAFGSEWKGKMAGEIGDFSSFSFHAVKNLTTAEGGALTWHLPFGNEPIIMDIDTTIPVFEGETWNEFLYRKCQLFSLHGQNKDALAKTKLGSWEYDVIGPWYKCNMTDIMASLGLAQMERYDTMLQKRQKYVERFNEAFKELNVAVLDHKGAEHCSSHHLYIIRLLGKTREQVNDVITKMAERGIATNVHYKPLPMMTAYKTLGFDIKNFPNAYKMFENTMTLPLNTKMTEEDVEYVIENFVDIVKSL,not soluble
5,MGSDKIHHHHHHMSTFIFPGDSFPVDPTTPVKLGPGIYCDPNTQEIRPVNTGVLHVSAKGKSGVQTAYIDYSSKRYIPSVNDFVIGVIIGTFSDSYKVSLQNFSSSVSLSYMAFPNASKKNRPTLQVGDLVYARVCTAEKELEAEIECFDSTTGRDAGFGILEDGMIIDVNFNFARQLLFNNDFPLLKVLAAHTKFEVAIGLNGKIWVKCEELSNTLACYRTIMECCQKNDTAAFKDIAKRQFKEILTVKEE,not soluble
6,MGSDKIHHHHHHMSTILLPKTQHLVVFQEVIRSGSIGSAAKELGLTQPAVSKIINDIEDYFGVELVVRKNTGVTLTPAGQLLLSRSESITREMKNMVNEISGMSSEAVVEVSFGFPSLIGFTFMSGMINKFKEVFPKAQVSMYEAQLSSFLPAIRDGRLDFAIGTLSAEMKLQDLHVEPLFESEFVLVASKSRTCTGTTTLESLKNEQWVLPQTNMGYYSELLTTLQRNGISIENIVKTDSVVTIYNLVLNADFLTVIPCDMTSPFGSNQFITIPVEETLPVAQYAAVWSKNYRIKKAASVLVELAKEYSSYNGCRRRQLIEVG,not soluble
7,MGSDKIHHHHHHMSTLRLLISDSYDPWFNLAVEECIFRQMPATQRVLFLWRNADTVVIGRAQNPWKECNTRRMEEDNVRLARRSSGGGAVFHDLGNTCFTFMAGKPEYDKTISTSIVLNALNALGVSAEASGRNDLVVKTVEGDRKVSGSAYRETKDRGFHHGTLLLNADLSRLANYLNPDKKKLAAKGITSVRSRVTNLTELLPGITHEQVCEAITEAFFAHYGERVEAEIISPNKTPDLPNFAETFARQSSWEWNFGQAPAFSHLLDERFTWGGVELHFDVEKGHITRAQVFTDSLNPAPLEALAGRLQGCLYRADMLQQECEALLVDFPEQEKELRELSAWMAGAVR,not soluble
8,MGSDKIHHHHHHMSTSVLYHAFNLKGITYRATRFTGDVIEYFADVKEEYIRCPKCGQRKFTFKGQKTRSFHLGPMGRKRCFLVLSLHRIKCNTCDTLWWPDLPFMVGKHRFARSFALIVLDLLRFGTIRWVADYLGVGWDMIKEIHKLKLQRLYRNIPLHKVRYIGIDEFSIRKGHEYMTTVMDLSEGRILYATEGKGKEGILPFLKKLARKGKKLRAVAMDMGISFFSAVREALPNIDVVFDRYHIMALMNQGIENLRRNHQKELDDTGKQTLKGNRFLLLRNYDSLKPDHKERLDALMQANQPLFVMHSMKEQLRLFWEIPEYAQAVTFLDTWCKDAMLSGIKELVKVAKTLSGYRTAILNYFKHHITNAALEGTNNKIKTLKRQAYGFRDMEYFKLRLYHLHTQRYSLTG,not soluble
9,MGSDKIHHHHHHMSVAHENARRIISDILGKQNIERVWFVGCGGSLTGFWPGKYFLDCEASKLAVGYITSNEFVHATPKALGKNSVVILASQQGNTAETVAAARVAREKGAATIGLVYQPDTPLCEYSDYIIEYQWARYPETVDPAQQKAAYSLWLALEILAQTEGYAQYDELVSAFGRFSDVVHGAQRQVQEDAQRFAAEWKDEKVVYMMGSGPSFGAAHQESICILLEMQWINSASIHSGEYFHGPFEITEPGTPFILLQSSGRTRPLDDRAIRFIERYQGKLQLIDADKLGIQDLSTDVGEYFCGLLHNCVLDVYNLALATARNHPLTTRRYMWKVEY,not soluble
10,MGSDKIHHHHHHMSVGEAMDTEVRAAAQAVCLAFNENPEAVEPRVQAAIAAAAARINRYPFDAEPRVMRKLAEHFSCPEDNLMLVRGIDECFDRISAEFSSMRFVTAWPGFDGYRARIAVSGLRHFEIGLTDDLLLDPNDLAQVSRDDCVVLANPSNPTGQALSAGELDQLRQRAGKLLIDETYVDYSSFRARGLAYGENELVFRSFSKSYGLAGLRLGALFGPSELIAAMKRKQWFCNVGTLDLHALEAALDNDRAREAHIAKTLAQRRRVADALRGLGYRVASSEANFVLVENAAGERTLRFLRERGIQVKDAGQFGLHHHIRISIGREEDNDRLLAALAEYSDHS,not soluble
11,MGSDKIHHHHHHMSVLQELTKKKYSSLKTMFDDKYCPTFVYSILDQTIPGAVYADDQTFPKSFFIGTESGIYFIAGDQGNRDFHDFIAGYYEEQVKSSKRFTLFSSSDTWDSVLKPILKDDLNQMRRAAFSYQPKSFKKTLQLPKGLVLKRIDEDIISHSTAFNSAYYEEYWNSVSQFASKGFGFAVLHGNHVVSECTSIFLGHNRAEMDIYTLEEYRGLGLAYCVANRFIAFCMENGIVPSWDCDICNNSSIALAAKLGFKTVTEYTIYYSG,not soluble
12,MGSDKIHHHHHHMSVPLRAVQLTEPSLFLQEHPEVQFVDLLISDMNGVVRGKRIERNSLPKVFEKGINLPASLFALDITGSTVESTGLGLDIGDADRICYPIPGTLSMEPWQKRPTAQLLMTMHELEGEPFFADPREVLRQVVARFTEMELTIVAAFELEFYLIDQENVNGRPQPPRSPISGKRPQSVQVYSIDDLDEYVECLQDIIDGARAQGIPADAIVAESAPAQFEVNLHHVADPMKACDYAVLLKRLIKNIAYDHEMDTTFMAKPYPGQAGNGLHVHISLLDKHGNNIFTSEDPEQNAALRHAIGGVLETLPASMAFLCPNVNSYRRFGSQFYVPNAPSWGLDNRTVALRVPTGSPDAVRLEHRVAGADANPYLLLASVLAGVHHGLTNKVEPGAPIEGNSYEQLEPSLPNNLRDALRELDDSEILAKYIDPKYIDIFVACKESELEEFEYSISDLEYNWYLHTV,not soluble
13,MGSDKIHHHHHHMSVSPEFTRGKIHDVVVKPLGKFLDERGWLAELFRSDETDPATMPVMAYVSMTRPGIVRGPHEHVDQTDWFCFIGPSNFKVYLWDSRPDSPTHGVKQTLFAGIDAPMSVIVPPGVVHAYKNVGGVDGIVFNAPNRLYAGEGKSSPVDEIRHEDVAGSPFILD,not soluble
14,MGSDKIHHHHHHMSWHNKVVWSEGLFLRPQLFQQQERYLEHYAHRRAATLSPFFFGFSHYSLDSEALALGKVIVKSASGVFADGTPFDTPGSTPPPAPLTIRAEHLDQLIYLAVPVRVPNAEETTFDNAADSLARNFVFDTELRDTNSIGQGPKTVQLSNLRLRLVPEKELTDAWIGLALTRVKTIRADSSIVLDDTLIPPVAGFGASELLTSWLAKIHELTRLRANSLAIRLTGANGNAGTTAEVSDYLLLQTLNRYEPLLQHLRRVPTTSPADLYALLLSMAGELSTYLRTDSRRPLDSHPAYQHSTPHLCLKPLVDDTHVLLNAVLVRSAQSIELKELGHGMRNAVVDPVDMAGFTAVVLAVHAAMPPDLLQQQFAAQAKAGPSERLPDLVRGHLPGITLQALPVPPRQIPFNAGFVYYELARSGPLWDEVARHGGLALHVAGEFPSLKLELWGVRS,not soluble
15,MGSDKIHHHHHHMSYRYNSVVDLIHKQISAGTLKVGDRLPSIRQLSLLTGFSTVTIHHAYELLESHGYCSARPRSGFYLVRTPLQQMGDFPHDGENSIEPISIVDFPHALLLSWQKRTLDAFGAPHPSADLFDCADVDRVMCRLLRRRKAIAANSVGGDPELRLQIAKRAAQRGVVTRPQDIVITGSAIQAFNLCLDALTDPGDVVLVESPSYFPALSSIKRRNLRVIEIYSHPVNGIDPDQLEHLVRNNEIRVAVLMASNHFPTGITYSEDRMKRIVSVAKKNDVTIIANSMLDDITYDSVTDNSLRKFDSGETVLQFSSFECGLSPQYGLGWIVAGKHSQKILAASYLGDYAPNDQRIQQAVAEYLSSRSHDRQLRRIRETLASRMERGLQLLADSLPTGCSVSRPTGGYMCWVRGPQKFTSMTAVLQLHKQNVSILPGSVFSAAARSFENFFALNLSFPWSAENEAKIGSIGDLIAQIVGR,not soluble
16,MGSDKIHHHHHHMSYYLRSASLTNYVEVARAVGLDPHQFLRAAKISRDVLLDPDIRIPAKKVGRLLDDSARAAHVDDFGLRMAELRQVSNLGPLAFVVREQPTLRRALESMVRYMGVQNEALAMRMEESEGLLMIRLHILNDQPGTLRQATDLAVGVVYRLLSVCLGASWRPRSICFTHAAPASQATFQRVFGMPCVFNQDFDGIVCVAADLEAPLPSYDPVMAHQVKRYLGTLLAQANTTLPDKVRELVHVLLPSGMCSVDRVAQHLGVDRRTVHRRLAQENTSYSDIVNAARASLVVRYIDNRERPLSEVATLLGFSSLSAFSRWFGGQFGCSVSKWRLQHEGQGRNTA,not soluble
17,MGSDKIHHHHHHMTAPFSTQLKRCTTCLLPETHETLVLDSEGVCNICRAQEVKAEINWEERLVHLDKLVAEYRGNYRYDCLIPFSGGKDSTWTLYYLMNRYPGIKPLVVRFNHGFLRPNLRANCDRVFRKLGVDVHDFSPSWKVVQRLMLQSFLEKGDFCWHCHTGIFAYPMQVAIKEQVPLIFWGEPSAEYTAYYNYDQAEEVDEERFNRYVNLGISAEDMLVRLDGYLDERDVEPFRYPPLKELRQLGYRSVCLGSYIPWDVKMQVGKIREELGWKGDLVENVPEDFNYEKIECWMQGVRDYIKYIKRGYTRPTHLAAIDLRNNRISKEEAKAMITQFEGRRPPSLDLFLDYVGLDEEQFYTIAMGHQVSPWQFDPDSIKSGPKTPDFEDWLRGDGLDLVDAEDQLGRWADSCSSCSSSSSCSGG,not soluble
